Test results: patent US20220325265A1, “GLUCOCEREBROSIDASE MUTANTS” (Hoffmann-la Roche Inc., priority 2019, published 2022)
Several values for one entry are separate records, joined by “and”; a condition that tells them apart may be missing. Equal entries are not always repeated.

Legend:
[1] = biological target: hGCase; experiment: Inhibition of hGCase using conditurol-β-epoxide (CBE), IC50 determination; format: biochemical, human; conditions: irreversible inhibitor conditurol-β-epoxide on the named hGCase variant; 25 nM protein, 10 min pre-incubation, 20 μM res-β-glc
Procedure: CBE is an irreversible inhibitor of glucocerebrosidases which covalently binds to the active site of the enzyme (Liou et al., 2006).
A stock solution of 100 mM CBE in H2Oultrapure was prepared. For IC50 determination, CBE concentrations ranging from 0.04-2500 μM were tested. Again, the final enzyme concentration was 25 nM. After adding the inhibitor, the enzyme was pre-incubated for 10 min before initializing the activity measurement by adding the substrate (20 μM).
IC50 evaluations were done in the same manner as described for IFG (see section above). The IC50 calculations were done using GraphPad Prism7 following equation 9.
(§1) To determine whether the active binding site of an enzyme is compromised or altered, IC50 values were calculated for active site inhibitor and compared. In this work, the natural occurring GCase inhibitor isofagomine (IFG) and conditurol-β-epoxide (CBE) were used. IFG is known as a reversible inhibitor, interacting with the active site of the GCase enzyme, whereas CBE is an irreversible inhibitor of GCase (Powe et al., 2006). The IC50 of an enzyme is defined as the concentration of an inhibitor, where the response, in this case the enzyme activity, is reduced by half (Kalliokoski et al., 2013). Both assays were conducted as described in section 2.5.6. The inhibitor profiles of M53T/P55T using IFG and CBE as well as the IC50 profiles of all residual mutants combined are shown in FIG. 4.
(§2) The raw data was plotted by transforming the applied IFG/CBE concentration to a logarithmic scale (x-axis, FIG. 4) and by normalizing the activity signal with highest signal of each data set to 100% (defined with apparent inhibitor concentration of 10-12 μM, equal to no inhibitor). IC50 values were calculated using GraphPad Prism7 following equation 9.

[2] = Determination of the kinetic parameters (Michaelis-Menten) with artificial substrate; format: biochemical; conditions: for kcat: protein concentration used: 25 nM; for Km / Vmax: res-β-glc 4-500 μM, 25 nM protein
Procedure: The kinetic parameters were examined using the artificial substrate resorufin-β-glucopyranoside (Sigma-Aldrich). For the determination, final concentrations of substrate ranging from 4-500 μM were tested. The assay followed the activity assay instructions in section 2.3.5. 25 nM final protein concentration was used for each construct. The incubation time was set to 30 min to ensure measurements in the linear signal range. The kinetics were evaluated and plotted according to Michaelis-Menten (Cornish-Bowden, 2013; Johnson, 2015). KM, Vmax was calculated by GraphPad Prism7 applying the Michaelis-Menten fit equation provided by the program. The equation model follows: […]
with: • KM: Michaelis-Menten constant [μM] • Vmax: maximum velocity of reaction [μM/min]
The kinetic parameter kcat is defined as the catalytic constant, representing the turnover number of substrate to product per time unit (here per second) (Eisenthal et al., 2007). kcat can be calculated as follows: […]
with: • kcat: turnover number [min-1] • Vmax: maximum velocity of reaction [μM/min] • [E]tot.: total enzyme concentration [nM]
Another kinetic key parameter to describe the catalytic efficiency of enzymes is the parameter kcat/KM, measured in [μM−1*s−1] in this work (Eisenthal et al., 2007).
Determining enzyme kinetic key parameters gives solid information about the efficiency and efficacy of an enzyme and how certain mutations can impact its functionality. For the determination and comparison of the enzymatic performances, KM, Vmax and kcat as well as kcat/KM were calculated for the different hGCase variants, respectively (Eisenthal et al., 2007). The according assay was performed as described in section 2.5.5, all measured with the artificial substrate res-3-glc. KM and Vmax determination for representative mutant M53T/P55T was done applying the Michaelis-Menten curve fit (GraphPad Prism7; see equation 4) as shown in the following.
The kinetic raw data is depicted in FIG. 5 (A) with progression curves following pseudo first order in a linear measurement range with a good reproducibility and low variance. The slopes of the progression curves can be replotted, with velocities V [μM/min] plotted as a function of substrate concentration [S] applied, resulting in a typical course of a Michaelis-Menten curve (Cornish-Bowden, 2013; Johnson, 2015).

[3] = biological target: hGCase; experiment: Inhibition of hGCase using isofagomine (IFG), IC50 determination; format: biochemical, human; conditions: reversible inhibitor isofagomine on the named hGCase variant; 25 nM protein, 10 min pre-incubation at RT, 20 μM res-β-glc
Procedure: IFG is a competitive, reversible inhibitor of hGCase, interacting with the active pocket of the enzyme (Powe et al., 2006).
To calculate the IC50, a concentration range of 0.002-100 μM IFG was tested. IFG was prepared with a stock concentration of 1 mM in DMSO. The final enzyme concentration was 25 nM. After adding the inhibitor to the enzyme, the solution was pre-incubated for 10 min at RT before adding the substrate (20 μM) for the activity measurement.
The evaluation and IC50 determination were done using GraphPad Prism7. hGCase activity with no inhibitor added was set to 100% relative enzyme activity. In case of evaluating the raw data via GraphPadPrism7, the applied inhibitor concentrations were first transformed to log 10×-values plottet on the x-axis. Further, the raw data measured with the activity assay in RFU was normalized to the highest activity value within one data set (equals 100%). 100% signal was defined as 10-12 μM IFG (=no inhibitor added). Data points were fitted and IC50 values were determined using log(inhibitor) vs. response-variable slope (four parameters) (GraphPadPrism7) following equation 9: […]
as §1, §2

Molecule	IC50 [1]	kcat [2]	Km [2]	Vmax [2]	IC50 [3]
F31Y: recombinant human β-glucocerebrosidase variant R495H/F31Y, S2 cells; Seq. Id. No. 5 (protein, listed as Homo sapiens, recombinant human β-glucocerebrosidase variant R495H/F31Y, S2 cells; Id; No. 5) ARPCIPKSFGYSSVVCVCNATYCDSFDPPTYPALGTFSRYESTRSGRRMELSMGPIQANHTGTGLLLTLQPEQKFQKVKGFGGAMTDAAALNILALSPPAQNLLLKSYFSEEGIGYNIIRVPMASCDFSIRTYTYADTPDDFQLHNFSLPEEDTKLKIPLIHRALQLAQRPVSLLASPWTSPTWLKTNGAVNGKGSLKGQPGDIYHQTWARYFVKFLDAYAEHKLQFWAVTAENEPSAGLLSGYPFQCLGFTPEHQRDFIARDLGPTLANSTHHNVRLLMLDDQRLLLPHWAKVVLTDPEAAKYVHGIAVHWYLDFLAPAKATLGETHRLFPNTMLFASEACVGSKFWEQSVRLGSWDRGMQYSHSIITNLLYHVVGWTDWNLALNPEGGPNWVRNFVDSPIIVDITKDTFYKQPMFYHLGHFSKFIPEGSQRVGLVASQKNDLDAVALMHPDGSAVVVVLNRSSKDVPLTIKDPAVGFLETISPGYSIHTYLWHRQ	60 ± 3 µM	0.07 s⁻¹	96.6 µM	0.11 µM/min	0.028 ± 0.003 µM
imiglucerase (protein, UniProt P04062 40-536, looked up, variant R495H, imiglucerase; CHO-produced, Commercially available Cerezyme (imiglucerase, Genzyme), hGCase R495H produced in CHO cells) Lysosomal acid …: ARPCIPKSFGYSSVVCVCNATYCDSFDPPTFPALGTFSRYESTRSGRRMELSMGPIQANHTGTGLLLTLQPEQKFQKVKGFGGAMTDAAALNILALSPPAQNLLLKSYFSEEGIGYNIIRVPMASCDFSIRTYTYADTPDDFQLHNFSLPEEDTKLKIPLIHRALQLAQRPVSLLASPWTSPTWLKTNGAVNGKGSLKGQPGDIYHQTWARYFVKFLDAYAEHKLQFWAVTAENEPSAGLLSGYPFQCLGFTPEHQRDFIARDLGPTLANSTHHNVRLLMLDDQRLLLPHWAKVVLTDPEAAKYVHGIAVHWYLDFLAPAKATLGETHRLFPNTMLFASEACVGSKFWEQSVRLGSWDRGMQYSHSIITNLLYHVVGWTDWNLALNPEGGPNWVRNFVDSPIIVDITKDTFYKQPMFYHLGHFSKFIPEGSQRVGLVASQKNDLDAVALMHPDGSAVVVVLNRSSKDVPLTIKDPAVGFLETISPGYSIHTYLWHRQ	60 ± 3 µM	0.09 s⁻¹	131 µM	0.14 µM/min	0.027 ± 0.006 µM
L34Q: recombinant human β-glucocerebrosidase variant R495H/L34Q, S2 cells; Seq. Id. No. 6 (protein, listed as Homo sapiens, recombinant human β-glucocerebrosidase variant R495H/L34Q, S2 cells; Id; No. 6) ARPCIPKSFGYSSVVCVCNATYCDSFDPPTFPAQGTFSRYESTRSGRRMELSMGPIQANHTGTGLLLTLQPEQKFQKVKGFGGAMTDAAALNILALSPPAQNLLLKSYFSEEGIGYNIIRVPMASCDFSIRTYTYADTPDDFQLHNFSLPEEDTKLKIPLIHRALQLAQRPVSLLASPWTSPTWLKTNGAVNGKGSLKGQPGDIYHQTWARYFVKFLDAYAEHKLQFWAVTAENEPSAGLLSGYPFQCLGFTPEHQRDFIARDLGPTLANSTHHNVRLLMLDDQRLLLPHWAKVVLTDPEAAKYVHGIAVHWYLDFLAPAKATLGETHRLFPNTMLFASEACVGSKFWEQSVRLGSWDRGMQYSHSIITNLLYHVVGWTDWNLALNPEGGPNWVRNFVDSPIIVDITKDTFYKQPMFYHLGHFSKFIPEGSQRVGLVASQKNDLDAVALMHPDGSAVVVVLNRSSKDVPLTIKDPAVGFLETISPGYSIHTYLWHRQ	106 µM	0.11 s⁻¹	143 µM	0.17 ± 0.01 µM/min and 0.17 µM/min	0.022 ± 0.004 µM
